We go through 3 molecules from patent publication US20260015426A1 (23ANDME, published 2026).

Experiment [1] has as its target T1, human IL1RAP (hu-IL1RAP) on human cells (human, UniProt Q9NPH3 21-570).
T1 sequence: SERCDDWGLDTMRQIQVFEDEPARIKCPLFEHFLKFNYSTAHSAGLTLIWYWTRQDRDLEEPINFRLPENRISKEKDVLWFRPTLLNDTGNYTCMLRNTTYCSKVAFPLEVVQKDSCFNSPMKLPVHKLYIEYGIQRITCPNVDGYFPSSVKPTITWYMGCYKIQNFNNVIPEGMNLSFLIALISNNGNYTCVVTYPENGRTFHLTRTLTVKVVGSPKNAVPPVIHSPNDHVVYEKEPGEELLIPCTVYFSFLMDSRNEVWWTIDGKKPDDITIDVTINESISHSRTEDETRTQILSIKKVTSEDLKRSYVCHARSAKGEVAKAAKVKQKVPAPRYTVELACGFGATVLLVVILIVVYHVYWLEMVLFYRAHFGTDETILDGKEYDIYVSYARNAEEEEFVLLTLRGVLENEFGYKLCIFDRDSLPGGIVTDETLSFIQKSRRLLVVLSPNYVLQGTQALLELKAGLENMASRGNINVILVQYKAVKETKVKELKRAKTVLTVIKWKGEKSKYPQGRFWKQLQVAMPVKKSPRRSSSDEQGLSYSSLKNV
Description: cell-based or functional assay.

The target in experiment [2] is T1, human IL1RAP (hu-IL1RAP) on human cells. Description: cell-based or functional assay. This is another data set of the same source.
Experiment [3] deals with T2, hu-M-IL1RAP construct, positions S21-T367 (extracellular domain of the membrane form of human IL1RAP) (human, UniProt Q9NPH3 21-367).
T2 construct: Biotinylated when captured on the Biacore chip
T2 sequence: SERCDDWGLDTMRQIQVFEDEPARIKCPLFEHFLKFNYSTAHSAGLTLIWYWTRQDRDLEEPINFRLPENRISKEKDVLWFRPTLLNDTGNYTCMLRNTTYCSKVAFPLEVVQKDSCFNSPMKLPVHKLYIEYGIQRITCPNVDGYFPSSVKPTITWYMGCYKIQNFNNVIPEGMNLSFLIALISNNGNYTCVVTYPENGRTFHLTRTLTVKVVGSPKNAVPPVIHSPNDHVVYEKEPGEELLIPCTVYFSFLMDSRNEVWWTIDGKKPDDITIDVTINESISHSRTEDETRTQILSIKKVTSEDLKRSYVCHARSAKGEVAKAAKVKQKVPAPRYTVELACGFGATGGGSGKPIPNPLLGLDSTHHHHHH
Put plainly: ELISA, purified mAb.
Description: (§1) After removing the coating solution, unspecific binding was blocked by adding 200 μL of assay/blocking solution containing 1% bovine serum albumin (BSA) in phosphate buffered saline (PBS) pH 7.4 (ELISA diluent) and incubation at room temperature for one hour with agitation or overnight at 4° C. without agitation. Plates were then washed three times with 300 μL of PBS, 0.05% TWEEN®-20 (wash buffer). 100 μL of culture supernatant from individual hybridoma clones (or purified antibodies at the indicated concentration) was added to individual wells followed by incubation at room temperature for one hour with agitation. […] The plate was incubated at room temperature for one hour with agitation, washed six times with wash buffer and developed for 3-10 minutes by adding 50 μL/well of tetramethylbenzidine (TMB) microwell peroxidase substrate (Scytek Laboratories, Inc., Logan, UT, USA; catalogue number TM1999).

The target in experiment [4] is T3, mu-M-IL1RAP construct, positions S21-T367 (mouse, UniProt Q61730 21-367).
T3 construct: also called mo-M-IL1RAP; mouse-M-IL1RAP
T3 sequence: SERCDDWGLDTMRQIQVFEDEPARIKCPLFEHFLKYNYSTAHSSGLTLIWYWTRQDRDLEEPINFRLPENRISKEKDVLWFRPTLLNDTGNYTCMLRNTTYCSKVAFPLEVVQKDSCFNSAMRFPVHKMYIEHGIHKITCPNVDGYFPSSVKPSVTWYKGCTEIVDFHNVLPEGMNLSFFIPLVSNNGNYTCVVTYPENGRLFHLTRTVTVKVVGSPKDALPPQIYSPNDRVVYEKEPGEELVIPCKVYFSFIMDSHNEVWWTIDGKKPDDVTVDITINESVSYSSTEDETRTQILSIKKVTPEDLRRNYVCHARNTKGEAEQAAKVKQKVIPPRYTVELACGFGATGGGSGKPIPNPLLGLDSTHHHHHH
Put plainly: ELISA, purified mAb. (ELISA stands for enzyme-linked immunosorbent assay.)
Description: as §1

The target of experiment [5] is T4, cyno-M-IL1RAP construct, positions S21-T367 (cynomolgus monkey, UniProt P59822 21-367 (rhesus entry)).
T4 construct: Biotinylated when captured on the Biacore chip; also called cy-M-IL1RAP
T4 sequence: T2 sequence with L183F, T273P, K326T
Description: ELISA, purified mAb.
Description: as §1

Experiment [6] addresses T5, hu-S-IL1RAP construct, positions S21-Q356 (soluble human IL1RAP) (human, UniProt Q9NPH3 21-350).
T5 sequence: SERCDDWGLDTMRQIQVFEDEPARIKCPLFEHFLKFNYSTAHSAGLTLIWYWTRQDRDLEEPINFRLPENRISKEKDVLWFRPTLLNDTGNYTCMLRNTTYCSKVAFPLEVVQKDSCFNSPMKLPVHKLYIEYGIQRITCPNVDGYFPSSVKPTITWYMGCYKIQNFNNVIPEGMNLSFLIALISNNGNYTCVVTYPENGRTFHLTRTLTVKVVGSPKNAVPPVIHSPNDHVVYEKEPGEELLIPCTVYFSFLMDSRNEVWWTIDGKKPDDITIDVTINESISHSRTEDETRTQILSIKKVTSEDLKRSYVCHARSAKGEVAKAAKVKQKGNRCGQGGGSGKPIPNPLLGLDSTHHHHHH
Description: ELISA, purified mAb.
Description: as §1

Experiment [7] addresses T2, hu-M-IL1RAP construct, positions …. Put plainly: ELISA, hybridoma supernatant.
Description: as §1
Experiment [8] concerns the target T6, hu-M-IL1RAP-D3 construct, positions K238-T367 (human).
T6 chain: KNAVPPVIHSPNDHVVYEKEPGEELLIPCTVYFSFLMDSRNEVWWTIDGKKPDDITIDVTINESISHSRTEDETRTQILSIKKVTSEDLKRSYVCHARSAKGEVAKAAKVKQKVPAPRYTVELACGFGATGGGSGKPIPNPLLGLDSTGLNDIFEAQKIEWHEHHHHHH
Put plainly: ELISA, mAb at 10 nM.
Description: as §1
(§2) Binding domain mapping: Binding domain mapping of the 15 purified antibodies was carried out using the above-described ELISA assay with the following IL1RAP polypeptide constructs coated at 1 μg/ml on the assay plates: hu-M-IL1RAP, hu-M-IL1RAP-D1, hu-M-IL1RAP-D1D2, and hu-M-IL1RAP-D3.

The target of experiment [9] is T2, hu-M-IL1RAP construct, positions …. Description: ELISA, mAb at 10 nM.
Description: as §1, §2
Experiment [10] deals with T1, human IL1RAP (hu-IL1RAP) on human cells. Description: cell-based or functional assay. The source holds these as a separate data set.
Experiment [11] has as its target T2, hu-M-IL1RAP construct, positions …. Put plainly: BLI (OCTET), mAb on AMC sensor, 25 C.
Description: (§3) The BLI experimental format immobilizes the antibody on a biolayer surface with the IL1RAP antigen in solution. […] All samples were placed in black 96-well plates and the experiment was performed at 25° C. […] The biosensors were equilibrated in experimental buffer at 25° C. for ten minutes prior to starting the experiment.
(§4) The kinetics experiment was performed with the following steps, where the step name, solution and time are listed: Baseline (buffer—60 seconds), Loading (antibody—200 seconds), Baseline 2 (buffer—minimum 120 seconds), Association (analyte—200-300 seconds) and Dissociation (buffer—1000 seconds). The BLI signal resulting from analyte association and dissociation of the antigens from the immobilized antibody was analyzed using the OCTET® Data Analysis software (Pall ForteBio). First, a reference subtraction was performed on all recorded traces using the reference well (biosensor that underwent the same steps as experimental wells but no analyte for the Association step), then all the traces were aligned to the beginning of the Association step.
In experiment [12] the target is T4, cyno-M-IL1RAP construct, positions …. Put plainly: BLI (OCTET), mAb on AMC sensor, 25 C.
Description: as §3, §4

One may read the EC50 as the concentration at which the effect is half-maximal. Usually Kd stands for a measure of binding affinity in units of concentration. Read a high Kd as lower affinity. Usually koff stands for a measure of how fast the partners let go of each other. A high value points to fast dissociation. One may read the kon as the second-order rate constant of association. Read a high kon as fast association.

Substitutions are numbered along the chain they refer to.

B1: 11C5(Hy) (purified mAb from the 11C5 hybridoma) (antibody, V domains shown)
VH: EVQLVESGGGLVKPGGSLKLSCAASGFTFSNYAMSWVRQTPEKRLEWVATVTEGGDYNYCLDDVKGRFTISRDNANDNLYLQMSHLKSEDSARYYCARDRWPYFFDYWGQGTTLTVSS
VL: DIQMTQSPASLSVSVGETVTITCRASENIYSNLAWYQQKQGRSPQLLVYGAKNLADGVPSRFSGSGSGTQYSLNINSLQSEDFGTYYCQHFWTTPRTFGGGTKLEIK
notes: Mouse hybridoma mAb; also called 11C5(Hy) mAb; mAb 11C5(Hy)
As for B1, in [1], the “HEK-Blue, IL-1α, IC50” value was found to be 4.7 nM; the “HEK-Blue, IL-1β, IC50” value came to 1 nM; the “HEK-Blue, IL-33, IC50” value was 3.71 nM; the “HEK-Blue, IL-36α, IC50” value came out at 2.52 nM. Also, in [1], the “HEK-Blue, IL-36β, IC50” value was determined as 0.981 nM and the “HEK-Blue, IL-36γ, IC50” value turned out to be 0.665 nM. Also, in experiment [2], the “HEK-Blue SEAP, IL-1β, % inhibition (supernatant)” value worked out at 84% and the “HEK-Blue SEAP, IL-33, % inhibition (supernatant)” value is 65%. Also, in experiment [3], the EC50 was found to be 0.026 nM. Besides, the binding result in experiment [4] is reported as “no binding (tested: 20 nM (highest tested))”. Moreover, the EC50 in [5] is 0.024 nM. In experiment [6], this molecule displayed an EC50 of 0.029 nM. The same molecule showed an A450 in experiment [7] of 1.44 A450. This molecule also had an A450 in experiment [8] of 1.44 A450. In experiment [9], this molecule had an A450 of 1.23 A450. Also, in [10], the “HEK-Blue, IL-1β, % inhibition at 100 nM” value amounted to 99% and the “HEK-Blue, IL-33, % inhibition at 100 nM” value was 93%. In [11], this molecule returned a dissociation constant (Kd) of 0.219 nM, an off-rate (koff) of 0.000103 s⁻¹ and a kon of 469000 M⁻¹ s⁻¹. Further, in experiment [12], the affinity, expressed as Kd, was 0.142 nM; the koff was 5.74e-05 s⁻¹; the on-rate constant (kon) was 413000 M⁻¹ s⁻¹.

B2: 13D8 (purified mAb from hybridoma 13D8) (antibody, V domains shown)
VH: EVQLVESGGGLVKPGGSLKLSCTASGFTFSNYAMSWVRQTPEKRLEWVATISDGGNYTYYPDNVKGRFTISRDIAKNNLYLQMSHLKSEDTAMYYCARDRWPYFFDFWGQGTTLTVSS
VL: B1 VL with E27D, Q38E, R42K, K52T, N74K, T85S, T97S, I106L
notes: Mouse hybridoma mAb
With B2, in [2], the “HEK-Blue SEAP, IL-1β, % inhibition (supernatant)” value was determined as 48%. In addition, the “HEK-Blue SEAP, IL-33, % inhibition (supernatant)” value in experiment [2] came out at 33%. Also, the 50% effective concentration (EC50) in experiment [3] worked out at 0.039 nM; in [5], 0.032 nM; in experiment [6], 0.035 nM. Further, in experiment [4], the binding result was “no binding (tested: 20 nM (highest tested))”. Further, the A450 in experiment [7] was 1.01 A450; in experiment [8], 1.46 A450; in experiment [9], 1.12 A450. Besides, the “HEK-Blue, IL-1β, % inhibition at 100 nM” value in experiment [10] was found to be 89%. In addition, in [10], the “HEK-Blue, IL-33, % inhibition at 100 nM” value stood at 69%.

B3: 10A11 (purified mAb from hybridoma 10A11) (antibody, V domains shown)
VH: EVQLQQSGAELVKPGASVRLSCTSSGFNIKDYFMHWVKQRTEQGLEWVGRIDPEDGETQYAPNFQDKATITVDTSSNTVYLQLSSLTSEDTAVYYCFRPLYYGNSPWFAYWGQGTLVTVSP
VL: DIQMTQTTSSLSASLGDRVTISCRASQDISNYLNWYQQKPDGTVKLLIYYTSTLHSGVPSRFSGSGSGTDYSLTISNLEPEDIATYYCHQYSKFPPTFGSGTKLEIK
notes: Mouse hybridoma mAb
As to B3, the “HEK-Blue SEAP, IL-1β, % inhibition (supernatant)” value in [2] came to 53%. Further, the “HEK-Blue SEAP, IL-33, % inhibition (supernatant)” value in experiment [2] was determined as 51%. The EC50 was found to be 0.039 nM in experiment [3], 0.032 nM in experiment [5] and 0.035 nM in [6]. In experiment [4], the binding result is recorded as “no binding (tested: 20 nM (highest tested))”. Besides, the A450 in [7] came out at 0.99 A450; in [8] it was 1.4 A450; in experiment [9], 1.18 A450. Moreover, the “HEK-Blue, IL-1β, % inhibition at 100 nM” value in [10] was found to be 72%. In [10], the “HEK-Blue, IL-33, % inhibition at 100 nM” value was 56%.
